The text below walks through data of patent US20260070976A1 (Alector, published 2026).

In assay [1] the target is T1, cell surface PILRA on human monocytes (human, UniProt Q9UKJ1 20-303). The assay can be described thus: cell-based or functional assay.
The target in assay [2] is T2, recombinant human PILRB (human, UniProt Q9UKJ0 20-191). The assay is described as follows: SPR, Carterra LSA, steady-state fit. As for the experimental part:
(§1) Binding kinetics of human anti-PILRA-IgG4 antibodies were evaluated by surface plasmon resonance (SPR) using a Carterra LSA instrument (Carterra, Salt Lake City, UT). Antibodies were immobilized in duplicate arrays onto an HC30M sensor chip (Carterra) by amine coupling according to the manufacturer's protocol. After priming the immobilized antibodies with HBS-EP+ (Teknova, Hollister, CA, #8022) running buffer with 0.5 mg/mL BSA (MP Biomedicals LLC, #820451), the immobilized antibodies were tested for their ability to bind to recombinant human PILRA (SEQ ID NO:1) and cynomolgus PILRA (SEQ ID NO:120) and to human PILRB (SEQ ID NO:105) and cynomolgus PILRB (SEQ ID NO:121).
(§2) For binding kinetics analysis, human and cynomolgus PILRA and PILRB analytes were diluted in running buffer to 440 to 470 nM, and diluted 3-fold serially five times, to 1.8 to 1.9 nM, and injected for five minutes over the entire chip using the single channel flow cell to measure association of binding to the immobilized antibodies. Dissociation of the analytes was measured for five minutes, followed by regeneration of the chip with two 30-second injections of 10 mM glycine pH 2.0.
For the human PILRB interactions, the binding was too weak and heterogenous for kinetic constants to be calculated in this assay. Therefore, steady-state affinities were estimated based on the binding level of each analyte concentration at the end of the injections.

Assay [3] concerns the target T3, recombinant human PILRA (human, UniProt Q9UKJ1 20-197). The assay is described as follows: SPR, Biacore T200, antibody captured by anti-Fab. As for the experimental part: (§3) A subset of these antibodies was further evaluated using the Biacore T200 (Cytiva). Anti-PILRA antibodies were diluted to 10 μg/mL and captured using an anti-Fab (Cytiva, #28958325) surface on a CM4 chip, that was prepared by amine coupling according to the manufacturer's protocol. Human PILRA and cynomolgus PILRB were diluted in running buffer to 130 nM, and diluted 4-fold serially, twice, to 8 nM. Human PILRB was similarly diluted from 260 nM to 16 nM. These analytes were injected and allowed 2 minutes of association, followed by dissociation for 5 minutes.
(§4) Data were analyzed using Biacore evaluation software to generate kinetic constants. The equilibrium dissociation constants (KD) were calculated from the fitted association and dissociation rate constants (k-on and k-off) for each of the anti-PILRA antibodies. These Kn values are indicated with asterisks in Table 8 below.

The target in assay [4] is T2, recombinant human PILRB. The assay can be described thus: SPR, Biacore T200, antibody captured by anti-Fab. On the procedure:
as §3, §4

The target of assay [5] is T3, recombinant human PILRA. The assay is described as follows: SPR, Carterra LSA, antibody amine-coupled, kinetic fit. On the procedure:
as §1, §2

Assay [6] concerns the target T4, recombinant cynomolgus PILRA (SEQ ID NO:120) (cynomolgus monkey).
T4 construct: also called cyno PILRA
Described as above. On the procedure: as §1, §2

The target of assay [7] is T5, human PILRA G78 on HEK293F cells (human, UniProt Q9UKJ1 20-303).
T5 construct: also called hA; G78 OE
T5 sequence (Q9UKJ1 20-303 R78G): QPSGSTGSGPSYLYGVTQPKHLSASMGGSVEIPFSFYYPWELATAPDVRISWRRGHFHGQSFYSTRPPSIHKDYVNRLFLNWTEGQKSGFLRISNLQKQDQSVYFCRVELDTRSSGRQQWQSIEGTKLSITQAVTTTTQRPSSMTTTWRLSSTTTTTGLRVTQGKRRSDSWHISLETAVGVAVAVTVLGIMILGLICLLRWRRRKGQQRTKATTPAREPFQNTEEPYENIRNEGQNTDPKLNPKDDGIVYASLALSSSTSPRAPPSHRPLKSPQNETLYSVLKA
The assay is described as follows: FACS on HEK293F cells, binding on human PILRA (hA) over human PILRB (hB). As for the experimental part: (§5) Conditioned media samples containing the tested anti-PILRA antibodies were assessed for binding to HEK293F cells overexpressing human PILRA (hA), human PILRB (hB), and cynomolgus PILRA (cA) by FACS. The conditioned media containing the tested antibodies were incubated with the cells for 30 min at 4° C., washed twice, and then detected with goat anti-human IgG secondary antibody (Alexa Fluor 647) at 1:1000 dilution. The cells were analyzed by flow cytometry on FACS Canto II, and for all cell lines, the reported MFI values were calculated for each conditioned media. These antibodies were evaluated for nonspecific binding using a baculovirus particle (BVP) assay (Jain T., Sun T., Durand S., Hall A., Houston N. R., Nett J. H., Sharkey B., Bobrowicz B., Caffry L, Yu Y., et al. Biophysical properties of the clinical-stage antibody landscape. Proc. Natl. Acad. Sci. USA. 2017; 114:944-949. Doi: 10.1073/pnas.1616408114.). The BVP scores are listed in Table 9, and the higher the score the more nonspecific binding that occurred.

The target in assay [8] is T6, cynomolgus PILRA on HEK293F cells (cynomolgus monkey, UniProt A0A7N9CRU1 20-292). The assay is described as follows: cA Kd of Table 9; method not stated (Example 8: HEK293F overexpressing cells, FACS).
T6 sequence (A0A7N9CRU1 entry or part of it): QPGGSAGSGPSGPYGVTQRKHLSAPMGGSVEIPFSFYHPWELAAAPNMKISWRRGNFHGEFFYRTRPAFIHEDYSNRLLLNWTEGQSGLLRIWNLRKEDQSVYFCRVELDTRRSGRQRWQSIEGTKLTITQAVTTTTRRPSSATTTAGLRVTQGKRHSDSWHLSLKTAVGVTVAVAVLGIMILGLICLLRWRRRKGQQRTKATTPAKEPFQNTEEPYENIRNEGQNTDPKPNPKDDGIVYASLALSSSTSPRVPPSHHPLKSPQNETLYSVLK
Assay [9] addresses T5, human PILRA G78 on HEK293F cells. The assay is described as follows: hA Kd of Table 9; method not stated (Example 8: HEK293F overexpressing cells, FACS).
The target of assay [10] is T7, human PILRB on HEK293F cells (human, UniProt Q9UKJ0 20-227).
T7 construct: also called hB
T7 sequence (Q9UKJ0 20-227): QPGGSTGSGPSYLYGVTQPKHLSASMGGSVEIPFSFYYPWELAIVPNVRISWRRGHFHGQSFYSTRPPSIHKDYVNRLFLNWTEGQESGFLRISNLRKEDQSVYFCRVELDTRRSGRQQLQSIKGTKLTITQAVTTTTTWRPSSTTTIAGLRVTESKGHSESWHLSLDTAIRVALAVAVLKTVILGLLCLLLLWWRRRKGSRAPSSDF
The assay can be described thus: hB Kd of Table 9; method not stated (Example 8: HEK293F overexpressing cells, FACS).

Assay [11] has as its target T6, cynomolgus PILRA on HEK293F cells. The assay can be described thus: flow cytometry; HEK293F cells overexpressing cynomolgus PILRA, goat anti-human IgG Alexa Fluor 647.
In assay [12] the target is T1, cell surface PILRA on human monocytes. The assay can be described thus: flow cytometry; Alexa Fluor 647-conjugated antibody on human CD14+ monocytes (second donor sample), Fc receptors blocked, 30 min on ice. As for the experimental part:
(§6) Anti-human PILRA antibodies X0 (PA-29) and its affinity matured variants were tested for their abilities to bind cell surface PILRA on human and cynomolgus monocytes. CD14+ monocytes were isolated from healthy human donors using a RosetteSep Human Monocyte Enrichment Cocktail kit (StemCell). Cynomolgus white blood cells were collected from cynomolgus whole blood. In both human and cynomolgus samples, the Fc receptor on the tested monocytes was blocked and the monocytes were treated with Alexa Fluor 647-conjugated PILRA antibodies for 30 minutes on ice. A dose response curve of antibodies X0 (PA-29), X1, X2, X7, X11, X12, X13, X14, X16, X18, and X20 was tested for binding to cell surface PILRA in human and cynomolgus monocytes, and antibodies bound to PILRA in a dose response manner. In another sample of human donor monocytes, a dose response curve of antibodies X0 (PA-29), X1, X2, X11, X13, X18, X29 (PA-43), and X34 (A6) was tested for binding to cell surface PILRA in human and cynomolgus monocytes, and antibodies bound to PILRA in a dose response manner.

The target of assay [13] is T5, human PILRA G78 on HEK293F cells. The assay is described as follows: flow cytometry; HEK293F cells overexpressing human PILRA, goat anti-human IgG Alexa Fluor 647. As for the experimental part: as §5
Assay [14] concerns the target T1, cell surface PILRA on human monocytes. The assay is described as follows: flow cytometry; Alexa Fluor 647-conjugated antibody on human CD14+ monocytes, Fc receptors blocked, 30 min on ice. As for the experimental part: as §6

T1 sequence (Q9UKJ1 20-303): as the sequence (Q9UKJ1 20-303 R78G) above, with G59R counted along it
T2 sequence (Q9UKJ0 20-191 limits assumed): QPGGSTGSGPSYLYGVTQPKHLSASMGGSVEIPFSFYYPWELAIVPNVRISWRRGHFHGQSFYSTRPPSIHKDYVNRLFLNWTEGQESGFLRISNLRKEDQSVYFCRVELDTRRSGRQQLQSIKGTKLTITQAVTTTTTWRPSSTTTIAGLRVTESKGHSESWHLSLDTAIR
T3 sequence (Q9UKJ1 20-197 limits assumed): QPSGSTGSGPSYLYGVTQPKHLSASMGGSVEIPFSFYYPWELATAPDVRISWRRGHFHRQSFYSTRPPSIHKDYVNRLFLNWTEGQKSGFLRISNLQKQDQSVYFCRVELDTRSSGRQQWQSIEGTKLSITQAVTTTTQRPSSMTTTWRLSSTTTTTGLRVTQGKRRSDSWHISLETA
T4 sequence (chain, as listed by the source limits assumed): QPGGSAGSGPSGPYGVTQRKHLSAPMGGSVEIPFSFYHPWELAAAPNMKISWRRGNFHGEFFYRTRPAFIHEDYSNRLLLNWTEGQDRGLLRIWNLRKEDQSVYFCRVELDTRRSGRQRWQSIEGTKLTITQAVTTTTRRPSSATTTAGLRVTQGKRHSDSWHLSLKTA

B1: X2 (antibody, V domains shown)
VH: QVQLVQSGAEVKKPGSSVKVSCKASGYNFLHYDVNWVRQAPGQGLEWMGGIIPIFGTANYAQKFQGRVTITADESTSTAYMELSSLRSEDTAVYYCATAVGAGWFDPWGQGTLVTVSS
VL: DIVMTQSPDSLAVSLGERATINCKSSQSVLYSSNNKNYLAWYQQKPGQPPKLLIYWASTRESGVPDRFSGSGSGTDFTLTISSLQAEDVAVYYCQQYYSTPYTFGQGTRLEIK
notes: conditioned media in the HEK293F assays
On to B1, for which the “Hu Mono DR EC50” value in assay [1] came out at 0.1 µg/mL. In addition, the Kd with recombinant human PILRB [2] stood at 53 nM; with recombinant human PILRA [3], 3.1 nM; with recombinant human PILRB [4], 157 nM; with recombinant human PILRA [5] it was 3.5 nM; in assay [6] it was 1.5 nM; in [8], 8.9 nM. Moreover, the Kd amounted to 0.8 nM in [9] and 216 nM in assay [10]. Also, the “hA/hB binding ratio on HEK293F” value in assay [7] is 71.1. Moreover, the “EC50 (read off the curve)” value is ~0.6 µg/mL in assay [11] and ~0.1 µg/mL in [12].

B2: X11 (antibody, human IgG4, V domains shown)
VH: QVQLVQSGAEVKKPGSSVKVSCKASGYNFLNYDVNWVRQAPGQGLEWMGGIIPIFGTANYAQKFQGRVTITADESTSTAYMELSSLRSEDTAVYYCATGVGAGWFDPWGQGTLVTVSS
VL: DIVMTQSPDSLAVSLGERATINCKSSQSVYFSENNKNYLAWYQQKPGQPPKLLIYWASTRESGVPDRFSGSGSGTDFTLTISSLQAEDVAVYYCQQYYEEPYTFGQGTRLEIK
notes: as for B1
Consider B2, for which the “Hu Mono DR EC50” value in assay [1] stood at 0.3 µg/mL. Besides, the Kd with recombinant human PILRB [2] is 80 nM; in the assay with recombinant human PILRA [3], 3.4 nM; in the assay with recombinant human PILRB [4] it was 142 nM; in the assay with recombinant human PILRA [5], 4.8 nM; in assay [6], 0.3 nM; in [8], 2.3 nM. Besides, binding in assay [9] was characterised by a dissociation constant (Kd) of 1.6 nM. Besides, in assay [7], the “hA/hB binding ratio on HEK293F” value was 79.8. Also, the “EC50 (read off the curve)” value was ~0.3 µg/mL in assay [13], ~0.5 µg/mL in [11], ~0.2 µg/mL in assay [14] and ~0.1 µg/mL in assay [12].
